According to patent publication US20190298743A1, “TREATMENT OF PAIN” (Takeda Pharmaceutical Company Limited, priority 2016, published 2019):

Columns and labels:
[1] = Protease-evoked paw edema, hindpaw thickness; type: in vivo, mice; settings: ipsilateral paw
Protocol: (§1) Immediately before experiments the mice were acclimatized to the experimental apparatus, room and investigator for 1-2 h on 2 successive days. Mechanical nociceptive responses were evaluated by paw withdrawal to stimulation of the plantar surface of the hind-paw with calibrated von Frey filaments. von Frey scores were measured in triplicate to establish a baseline for each animal on the day before experiments. Paw edema was estimated by measuring the thickness of the hindpaw using digital calipers before and after treatments. Mice were […] with 5% isoflurane for intraplantar injections. Dyngo4a (50 μM), PitStop2 (50 μM) or vehicle (0.2% DMSO in 0.9% NaCl) (all 10 μl) were injected into the left hindpaw. After 30 min, trypsin (10 nM), Cat-S (2.5 μM) or elastase (30 U) (all 10 μl) were injected into the same left hindpaw. von Frey scores (left and right paws) and paw thickness (left paw) were measured hourly for up to 4 h after protease injection. Investigators were blinded to the test agents.

PAR2 [2] = test: BRET proximity of PAR2 to KRas (plasma membrane) and Rab5a (endosomes) in HEK cells; type: cell-based; settings: HEK cells
Protocol: (§2) The contribution of endocytosis of protease-activated receptor-2 (PAR2) was evaluated for generation of signals in subcellular compartments that mediate protease-evoked sensitization of nociceptors. Bioluminescence resonance energy transfer (BRET) was used to assess the proximity of PAR2 to resident proteins of the plasma membrane (KRas) and endosomes (Rab5a) in HEK cells. […] Förster resonance energy transfer (FRET) biosensors targeted to the plasma membrane, cytosol or nucleus were used to examine the capacity of proteases to generate signals in subcellular compartments of HEK cells and rat dorsal root ganglia neurons. […] Dynamin inhibitor Dyngo4a, Clathrin inhibitor Pitstop2 and dominant negative β-arrestin inhibited trypsin-evoked endocytosis of PAR2, and prevented trypsin-evoked activation of cytosolic cAMP and PKC and nuclear ERK. […] To examine the link between PAR2 endocytosis, compartmentalized signaling and nociceptor sensitization, perforated patch clamp recordings were made from mouse dorsal root ganglia neurons. […] The effects of proteases on excitability were blocked by the PAR2 antagonist GB88. Thus, canonical and biased proteases sensitize nociceptors by distinct mechanisms. For canonical agonists, PAR2 endocytosis generates compartmentalized signals subcellular compartments that underlie sustained excitability of nociceptive neurons. […]

[3] = Protease-evoked mechanical hyperalgesia, von Frey paw withdrawal; type: in vivo, mice; settings: ipsilateral paw
Protocol: as §1

PAR2 [4] = test: FRET biosensors for compartmentalised cAMP, PKC and ERK signals in HEK cells and rat dorsal root ganglia neurons; type: cell-based
Protocol: as §2

DRG neurons = test: Perforated patch-clamp excitability (rheobase) of isolated DRG neurons; type: cell-based, mice; settings: 0 min and 30 min after washing
Protocol: To assess the effects of proteases on excitability of nociceptors, DRG neurons were preincubated with trypsin, cathepsin S, elastase or vehicle (control), washed, and rheobase and action potential discharge at a current of twice rheobase were measured at 0 min or 30 min after washing.
DRG (T9-T13) from C57BL/6 mice were digested by incubation in collagenase (1 mg/ml, Worthington Biochemical, Lakewood, N.J.) and dispase (4 mg/ml, Roche Life Science, Indianapolis, Ind.) for 10 min at 37° C., and were dispersed by trituration with a fire-polished Pasteur pipette. Cells were plated onto coverslips coated with laminin (0.017 mg/ml) and poly-D-lysine (2 mg/ml) in 24-well plates. […]
Neuronal excitability was assessed by perforated patch-clamp recordings with amphotericin B (240 μg/ml) from small diameter neurons (<30 pF capacitance) in current clamp mode at room temperature. Only neurons with resting membrane potentials more negative than −40 mV were analyzed. Changes in excitability were quantified by measuring rheobase (minimum current to fire action potential) and numbers of action potentials discharged at twice rheobase. […]
Results are expressed as mean±SE. […]

PAR2 [5] = test: BRET receptor trafficking, PAR2-RLuc8 with plasma membrane marker RIT-venus in HEK293 cells; type: cell-based; settings: trypsin 10 nM
Protocol: (§3) Bret studies of receptor trafficking were conducted to quantify PAR2 internalisation (RIT-venus) and trafficking to early endosomes (Rab5a-venus) upon stimulation with different agonists.
(§4) After achieving ˜50% confluency within 10 cm dishes HEK293 cells were transiently transfected with 1 μg PAR2-RLuc8 and 4 μg of either RIT-venus or Rab5a-venus using PEI as a transfection agent. 24 hours post transfection, cells were seeded into poly-D-lysine coated 96-well isoplates. […] When used endocytic inhibitors were diluted in 1×HBSS+1% dimethyl sulfoxide (DMSO). Following the replacement of culture media cells were allowed to equilibrate at 37° C. for 30 minutes before the addition of colenterazine H [5 μM]. After a further 5 minute incubation BRET was assessed using a LUMIstar Omega microplate reader (BMG LabTech, Offenburg, Germany), with luminescence being read at 535 nm and 475 nm. A 4 minute baseline was obtained before the addition of vehicle (1×HBSS+/−1% DMSO) or protease, measurements were then continued for a further 30 minutes. BRET ratios were calculated using LUMIstar MARS analysis software and then corrected to baseline and vehicle treatments in Microsoft Excel 2013.

PAR2 [6] = test: BRET receptor trafficking, PAR2-RLuc8 with early endosomal marker Rab5a-venus in HEK293 cells; type: cell-based; settings: trypsin 10 nM
Protocol: as §3, §4

B1: cathepsin S: biased agonist protease of PAR2 (protein, UniProt P25774 115-331, looked up)
Cathepsin S: LPDSVDWREKGCVTEVKYQGSCGACWAFSAVGALEAQLKLKTGKLVSLSAQNLVDCSTEKYGNKGCNGGFMTTAFQYIIDNKGIDSDASYPYKAMDQKCQYDSKYRAATCSKYTELPYGREDVLKEAVANKGPVSVGVDARHPSFFLYRSGVYYEPSCTQNVNHGVLVVGYGDLNGKEYWLVKNSWGHNFGEEGYIRMARNKGNHCGIASFPSYPEI
Edema after intraplantar injection of protease [1]: edema of the ipsilateral paw that was maximal after 4 h
PAR2 endocytosis induced by agonist (PAR2 [2]): did not induce PAR2 endocytosis
Mechanical hyperalgesia after intraplantar injection of protease [3]: caused mechanical hyperalgesia of the ipsilateral paw that was sustained for at least 4 h
Signals generated by protease in subcellular compartments (PAR2 [4]): only activated cAMP and PKC at the plasma membrane and ERK in the cytosol
Effect of protease on excitability (rheobase) of DRG neurons (DRG neurons): immediate increase in excitability
Change in BRET between PAR2 and plasma membrane marker upon agonist stimulation (PAR2 [5]): not observed
Change in BRET between PAR2 and early endosomal marker upon agonist stimulation (PAR2 [6]): not observed
